Key:
MDA-MB-231 cells = assay: Endocytosis capacity of murine monoclonal antibody (flow cytometry internalization); format: cell-based, human; conditions: antibody 1.5 μg/mL; for Internalization MDA-MB-231 (%) 2 h: MDA-MB-231, 2 h at 37° C.; for Internalization MDA-MB-231 (%) 0.5 h: MDA-MB-231, 0.5 h at 37° C.; for Internalization MDA-MB-231 (%) 1 h: MDA-MB-231, 1 h at 37° C.
Method: (§1) The endocytosis capacity of the antibody was detected for 0.5 to 2 hours. MDA-MB-231 and PC3 cells were subjected to digestion with 5 mM EDTA, and plated at 4×10^4 cells/well after cell counting. After adding an Fc blocker (Human TruStain FcX™, Biolegend, 422302) and blocking at room temperature for 10 mins, a test antibody (1.5 μg/mL) was added, and the mixture was incubated at 4° C. for 30 mins, centrifuged, and washed twice with PBS+2% FBS, then the cells were divided into four equal portions (labeled as 0 h, 0.5 h, 1 h, 2 h), cells labeled as 0.5 h, 1 h, 2 h time points were added to a cell culture medium at 200 µL/well, and cultured at 37° C. for 0.5 h, 1 h, 2 h, respectively. Cells at 0 h point were centrifuged to remove supernatant, a secondary antibody (PE anti-human IgG Fc Antibody, Biolegend, 410708) was added, and the mixture was incubated at 4° C. for 30 mins, centrifuged, and washed twice with PBS+2% FBS, and detection was performed using a flow cytometer. After incubation of cells labeled as 0.5 h, 1 h, and 2 h points at 37° C. was completed, a secondary antibody was added (in the same steps as those at 0 h point), Geo-MFI of the signal under the same voltage was collected as detection signal at 0 h, and antibody internalization rate was calculated according to the following equation: Internalization (%)=(Geo-MFI (0 h)-Geo-MFI (0.5, 1, 2 h))/Geo-MFI (0 h)×100%.

PC3 cells = assay: as above; format: cell-based, human; conditions: antibody 1.5 μg/mL; for Internalization PC3 (%) 2 h: PC3, 2 h at 37° C.; for Internalization PC3 (%) 0.5 h: PC3, 0.5 h at 37° C.; for Internalization PC3 (%) 1 h: PC3, 1 h at 37° C.
Method: as §1

Molecule | Internalization MDA-MB-231 (%) 2 h (MDA-MB-231 cells) [%] | Internalization PC3 (%) 2 h (PC3 cells) [%] | Internalization MDA-MB-231 (%) 0.5 h (MDA-MB-231 cells) [%] | Internalization MDA-MB-231 (%) 1 h (MDA-MB-231 cells) [%] | Internalization PC3 (%) 0.5 h (PC3 cells) [%] | Internalization PC3 (%) 1 h (PC3 cells) [%]
1CP-063: anti-CDCP1 murine monoclonal antibody (hybridoma); VH SEQ ID NO: 263, VL SEQ ID NO: 313 (antibody, V domains shown, 1CP-063 heavy chain variable region; 1CP-063 light chain variable region) VH: EVNLKESGPELVKPGASVRISCKASGYTFTSYYIHWVKQRPGQGLEWIGWIYPGNVNSKYNEKFKGKVTLTADKSSITAYMQLSSLTSEDSAVYFCAREDYGHYYAMDYWGQGTTVTVSS VL: DIVMTQSPSSMYASLGERVTITCKASQDIKSYLSWYQQKPWKSPKTLIYYATSLADGVPSRFSGSGSGQDYSLTISSLESDDTATYYCLQYGESPWTFGGGTKLEIK | 49.71 | 62.68 |  |  |  | 
6G9: anti-CDCP1 murine monoclonal antibody (hybridoma); VH SEQ ID NO: 244, VL SEQ ID NO: 295 (antibody, V domains shown, 6G9 heavy chain variable region; 6G9 light chain variable region) VH: EVQLKESGPGLVKPSQSLSLTCTVTGYSITSDYAWNWIRQFPGNKLEWMGYIIYSGRTSYNPSLKSRISITRDTSKNQFFLQLNSVTTEDTATYYCAREDYYGGSYGGLDYWGQGTTVTVSS VL: DIVMTQSPLSLPVSLGDQASISCRSSQSIVHSNGNTYLEWYLQKPGQSPKLLIYKVSNRFSGVPDRFSGSGSGTDFTLKISRVEAEDLGVYYCFQGSHVPWTFGGGTKLEIK | 88.89 | 87.67 | 75.76 | 86.81 | 60.58 | 77.88
3F1A11: anti-CDCP1 murine monoclonal antibody (hybridoma); VH SEQ ID NO: 245, VL SEQ ID NO: 296 (antibody, V domains shown, 3F1A11 heavy chain variable region; 3F1A11/3F1A11-H-12 light chain variable region) VH: EVKLVESGPGLVKPSQSLSLTCTVTGYSITSDYAWNWIRQFPGNKLEWMGYISYNTYTSYNPSLKSRISVTRDTSKNQFFLQLKSVTIEDTATYFCAGGDYYGTGAVDYWGQGTTVTVSS VL: EIVLTQSPLSLPVSLGDQASISCRSRQTLVHTNGNTYLDWYLQKPGQSPKLLIYKVSIRFSGVPDRFSGSRSGTDFTLKISRVEAEDLGIYYCFQGSHVPWTFGGGTKLEIK | 38.10 | 51.76 |  |  |  | 
3F1A11-H-12: anti-CDCP1 murine monoclonal antibody (hybridoma); VH SEQ ID NO: 248, VL SEQ ID NO: 296 (antibody, V domains shown, 3F1A11-H-12 heavy chain variable region; 3F1A11/3F1A11-H-12 light chain variable region) VH: EVKLVESGPGLVKPSQSLSLTCSVTGYSITSGYYWNWIRQFPGNKLDWMGYITYDDSHYYNPSLKDRLSITRDTSKNQFFLKLNSVTAEDTATYFCARGNYYANYPHAMDYWGQGTTVTVSS VL: EIVLTQSPLSLPVSLGDQASISCRSRQTLVHTNGNTYLDWYLQKPGQSPKLLIYKVSIRFSGVPDRFSGSRSGTDFTLKISRVEAEDLGIYYCFQGSHVPWTFGGGTKLEIK | 37.57 | 33.83 |  |  |  | 
1CP-067: anti-CDCP1 murine monoclonal antibody (hybridoma); VH SEQ ID NO: 265, VL SEQ ID NO: 315 (antibody, V domains shown, 1CP-067 heavy chain variable region; 1CP-067 light chain variable region) VH: EVQLKESGGGLVKPGGSLKLSCTASGFTFSVYGMSWVRQTPEKRLEWVATLSGGSNYTYYSDSVKGRFTISRDTGKNNLYLQMSSLSSDDTALYYCATEDGLIGTWGDYWGQGTTVTVSS VL: DIVMTQAAFSNPVTLGTSASISCRSTKSLLHSNGITYLYWFLQKPGQSPQLLIYQMSNLASGVPDRFSSSGSGTDFTLRISRVEAEDVGVYYCAQNLELPFTFGGGTKLEIK | 69.09 | 72.66 |  |  |  | 
24G4: anti-CDCP1 murine monoclonal antibody (hybridoma); VH SEQ ID NO: 261, VL SEQ ID NO: 311 (antibody, V domains shown, 24G4 heavy chain variable region; 24G4 light chain variable region) VH: EVQLKESGAELVRSGASVKLSCTASGFNIKDYYIHWVKQRPEQGLEWIGWIDPENGDTEYVPKFQGKATLTADTSSNTAYLQLNSLTSEDTAVYYCNPCGTGPWFAYWGQGTTVTVSS VL: DIQMTQSPAILSASPGEKVTMTCRASSSVSYIHWYQQKPGSSPDPWIYATSFLASGVPGRFSGSGSGTSYSLTISRLEAEDAATYYCQQWNSSPFTFGGGTKLEIK | 83.23 | 82.61 | 55.98 | 70.68 | 46.97 | 67.07
5G9: anti-CDCP1 murine monoclonal antibody (hybridoma); VH SEQ ID NO: 241, VL SEQ ID NO: 292 (antibody, V domains shown, 5G9 heavy chain variable region; 5G9 light chain variable region) VH: EVQLQQSGTVLARPGASVKMSCKASGYIFLNYWMHWVKQRPGQGLEWIGGIYPGNTDTTYNQKFKGKAKVTAVTSATTAYMELSSLTNEDSAVYYCIRYDYDRGMDYWGQGTTVTVSS VL: DIVMTQAPAIMSASPGEKVTISCSASSSVSYIYWYQQKPGSSPKPWIYRTSNLASGVPARFSGSGSGTSYSLTISSMEAEDAATYYCQQYHSYPYTFGGGTKLEIK | 0.00 | 0.00 | 0.00 | 0.00 | 0.00 | 0.00
1CP-061: anti-CDCP1 murine monoclonal antibody (hybridoma); VH SEQ ID NO: 262, VL SEQ ID NO: 312 (antibody, V domains shown, 1CP-061 heavy chain variable region; 1CP-061 light chain variable region) VH: EVQLKESGAELVRPGASVKLSCKASGYTFTSYWINWVRQRPGQGLEWIGNIYPSDSYTNYNQKFKDKATLTVDKSSSTAYMQLSSPTSEDSAVYYCTRCLRRRDWYFDVWGQGTTVTVSS VL: DVVMTQTPASLAVSLGQRATISCRASESVDYSGYSFMHWYQQKPGQPPKLLIYRASNLESGIPARFSGSGSRTDFTLTINPVEADDVATYYCQQSNEDPYTFGGGTKLEIK | 42.68 | 28.00 |  |  |  | 
1CP-062: anti-CDCP1 murine monoclonal antibody (hybridoma); VH SEQ ID NO: 264, VL SEQ ID NO: 314 (antibody, V domains shown, 1CP-062 heavy chain variable region; 1CP-062 light chain variable region) VH: EVKLVESGPGLVAPSQSLSITCTVSGFSLTTYGVHWVRQPPGKGLEWLVVIWSDGNTTYNSALKSRLSINKDNSKSQVFLKMNSLQTDDTAMYYCAKNYRNYDYAMDYWGQGTTVTVSS VL: DIVMTQTPASLAVSLGQRATISCRASESVDSYGNSFMHWYQQKPGQPPKLLIYRASNLESGIPARFSGSGSRTDFTLTINPVEADDVATYYCQQSNEDPYTFGGGTKLEIK | 59.61 | 66.74 |  |  |  | 

— patent US20260250410A1, “ANTIBODY AND USE THEREOF” (SICHUAN HUIYU PHARMACEUTICAL CO., LTD., priority 2022, published 2026)
